Data reported in patent US20250122271A1, “ANTI-DKK1 ANTIBODY, PHARMACEUTICAL COMPOSITION THEREOF, AND USE THEREOF” (SHANGHAI JUNSHI BIOSCIENCES CO., LTD., priority 2022, published 2025).
Read-outs that look alike come from different tables or passages of the source.

T1: human DKK1 antigen (Sino Biological, 10170-H08H) (human, UniProt O94907 32-266)
T1 chain: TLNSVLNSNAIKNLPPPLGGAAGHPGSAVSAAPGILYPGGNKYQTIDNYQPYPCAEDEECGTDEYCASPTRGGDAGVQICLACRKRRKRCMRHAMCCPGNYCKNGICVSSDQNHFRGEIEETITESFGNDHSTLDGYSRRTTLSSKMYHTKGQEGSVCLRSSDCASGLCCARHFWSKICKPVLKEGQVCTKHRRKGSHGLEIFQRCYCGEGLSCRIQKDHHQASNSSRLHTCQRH

T2: human DKK1 antigen (Sino Biological, 10170-H08H) (human, UniProt O94907 32-266)
T2 construct: also called huDKK1; hDKK1
T2 sequence (looked up): T1 chain

T3: human DKK1 (Homo sapiens, UniProt O94907)
T3 construct: purchased Sino Biological 10170-H08H
T3 sequence (O94907 32-266): T1 chain

B1: chimeric antibody chi-8 (antibody, human IgG4 S228P, kappa, V domains shown)
VH: EVQLQQSGPELVKPGASVKIFCKTSGYTFTENTMHWVKQTHGKSLEWIGGINPHKGGTSYNQKFKGKATLTVDKSSSTACMELRSLTSEDSTVYYCARDWLGAMDYWGQGTSVTVSP
VL: ETTVTQSPASLSMAIGEKVTIRCITSTDIDDDMNWYQQKPGEPPKLLISEGNTLRPGVPSRFSSSGYGTDFVFTIENMLSEDVADYYCLQSDNLPYTFGGGTKLEIKR
notes: hIgG4 heavy constant region and human kappa constant region; also called No. 2 chimeric antibody molecule
B2: chi-21 (antibody, V domains shown)
VH: QVQLQQPGAELVKPGASVKMSCKASGYTFTSYNMLWVKQTPGQGLEWIGVIFPGNGDTSYNPKFKGKAALTADKSSSTAYMQLSSLTSEDSAVYYCARDGYPSMDYWGQGTSVTVSS
VL: QIVLTQSPVIMSASPGEKVTMTCSASSSVSYMYWYQQKPGSSPRLLIYDTSNLASGVPVRFSGSGSGTSYSLTISRMEAEDAATYYCQQWSSYPPALTFGAGTKLELK
B3: chimeric antibody chi-15 (antibody, human IgG4 S228P, kappa, V domains shown)
VH: B2 VH
VL: ETIVTQSPASLSVATGEKVTIRCITSTDIDDDMNWYQQKPGEPPKLLISEGNSLRPGVPSRFSSSGYGTDFVFTIENTLSEDVADYYCLQFNNMPLTFGAGTKLELKR
notes: hIgG4 heavy constant region and human kappa constant region; also called No. 3 chimeric antibody molecule
B4: chimeric antibody chi-1 (antibody, human IgG4 S228P, kappa, V domains shown)
VH: EVQLQQSGPELVKPGASVRISCKTSGYTFTEYTMHWVKQSHGKSLEWIGVIDPSNGDTSYNQKFKGRATLTVDKSSSTAYMDLRSLTSEDSALYYCSSTTGPWFACWGQGTLVTVSA
VL: DIQMTQTTSSLSASLGDRVTINCRASQDISNYLNWYQQKPDGTVKLLIYYKSRLHSGVPTRFSGSGSGTDFSLTISNLVQEDIATYFCQQVHTLPPTFGGGTKLEIKR
notes: hIgG4 heavy constant region and human kappa constant region; also called No. 1 chimeric antibody molecule
B5: chi-1: chimeric antibody 1VH+1VL (SEQ ID NO: 37/38) (antibody, V domains shown)
VH: MGWSWIFLFLLSGTAGVLSEVQLQQSGPELVKPGASVRISCKTSGYTFTEYTMHWVKQSHGKSLEWIGVIDPSNGDTSYNQKFKGRATLTVDKSSSTAYMDLRSLTSEDSALYYCSSTTGPWFACWGQGTLVTVSA
VL: MSSAQFLGLLLLCFQGTRCDIQMTQTTSSLSASLGDRVTINCRASQDISNYLNWYQQKPDGTVKLLIYYKSRLHSGVPTRFSGSGSGTDFSLTISNLVQEDIATYFCQQVHTLPPTFGGGTKLEIK
B6: chi-8: chimeric antibody 2VH+2VL (SEQ ID NO: 39/40) (antibody, V domains shown)
VH: MGWSWIFLFLLSGTAGVLSEVQLQQSGPELVKPGASVKIFCKTSGYTFTENTMHWVKQTHGKSLEWIGGINPHKGGTSYNQKFKGKATLTVDKSSSTACMELRSLTSEDSTVYYCARDWLGAMDYWGQGTSVTVSP
VL: MFSLALLLSLLLLCVSDSRAETTVTQSPASLSMAIGEKVTIRCITSTDIDDDMNWYQQKPGEPPKLLISEGNTLRPGVPSRFSSSGYGTDFVFTIENMLSEDVADYYCLQSDNLPYTFGGGTKLEIK
B7: chi-15: chimeric antibody 3VH+3VL (SEQ ID NO: 41/42) (antibody, V domains shown)
VH: MGWNCFILFLVATATGVHSQVQLQQPGAELVKPGASVKMSCKASGYTFTSYNMLWVKQTPGQGLEWIGVIFPGNGDTSYNPKFKGKAALTADKSSSTAYMQLSSLTSEDSAVYYCARDGYPSMDYWGQGTSVTVSS
VL: MLSLAPLLSLLLLCVSDSRAETIVTQSPASLSVATGEKVTIRCITSTDIDDDMNWYQQKPGEPPKLLISEGNSLRPGVPSRFSSSGYGTDFVFTIENTLSEDVADYYCLQFNNMPLTFGAGTKLELK

Legend:
[1] = system: A549 cells; experiment: A549 subcutaneous transplantation tumor model in CB17/SCID female mice; type: in vivo
Procedure: The experimental animals were CB17/SCID female mice, and A549 cells (5× 10^6) were subcutaneously inoculated into the mice to establish a subcutaneous transplantation tumor model. […] The groups each had 6 animals, and the animals in all the groups were subjected to intraperitoneal injection. […] The efficacy was evaluated based on tumor growth inhibition (TGI) (FIG. 9).

[2] = system: advanced gynecological cancers; conditions: patients with high expression of DKK1, stage 2 clinical; cited from earlier work
[3] = biological target: T1, human DKK1 antigen (Sino Biological, …); experiment: ELISA binding; given as IC50
[4] = biological target: T2, human DKK1 antigen (Sino Biological, …); experiment: ELISA, coated human DKK1
Procedure: (§1) Detection of the binding activity of the chimeric antibodies for human DKK1 by ELISA: After the plate was coated with 2.0 μg/mL human DKK1 antigen (Sino Biological, 10170-H08H) for 90 min and then blocked with 2% BSA for 90 min, the gradiently diluted anti-DKK1 chimeric antibodies and positive control antibody DKN-01 (starting at 1 μg/mL, diluted in a 2.5-fold gradient to 1.64 ng/ml, with a total of 8 concentrations) were added, and the mixture was incubated for 60 min. After the plate was washed, the 5000-fold diluted HRP-conjugated goat anti-human IgG (Fc specific) (Sigma, A0170) secondary antibody was added for incubation, and 0.1 mg/mL TMB (Sigma, T2885) was added for color development. Finally, the reaction was stopped with a 2 M hydrochloric acid solution. The plate was read at 450 nm/620 nm using a Thermo Scientific microplate reader, and the EC50 values of the chimeric antibodies (FIG. 3) were obtained by fitting using a four-parameter logistic regression (4PL) model.

[5] = biological target: T1, human DKK1 antigen (Sino Biological, …); experiment: ELISA blocking of DKK1-LRP6
[6] = biological target: T1, human DKK1 antigen (Sino Biological, …); experiment: ELISA binding
[7] = biological target: T1, human DKK1 antigen (Sino Biological, …); experiment: ELISA binding
[8] = biological target: T1, human DKK1 antigen (Sino Biological, …); experiment: ELISA blocking of DKK1-LRP6
[9] = biological target: T3, human DKK1; experiment: Binding of antibodies to human DKK1 by ELISA; conditions: chimeric antibodies, compared among each other
Procedure: as §1
Detection of the binding of the humanized antibodies to DKK1 by ELISA: The plate was coated with 2.0 μg/mL human DKK1 antigen (Sino Biological, 10170-H08H) for 90 min and then blocked with 2% BSA for 90 min. After the plate was washed, the gradiently diluted anti-DKK1 humanized antibodies (starting at 1 μg/mL, diluted in a 10-fold gradient to 1 ng/ml, with a total of 4 concentrations) were each added, and the mixture was incubated for 60 min. After the plate was further washed, the 5000-fold diluted HRP-conjugated goat anti-human IgG (Fc specific) (Sigma, A0170) secondary antibody was added for incubation for 30 min, and 0.1 mg/mL TMB (Sigma, T2885) was added at 100 μL per well for color development for 10 min. Finally, a 2 M hydrochloric acid solution was added at 50 μL per well to stop the reaction. The plate was read at 450 nm/620 nm using a Thermo Scientific microplate reader. The EC50 values of the humanized antibodies were obtained by fitting using a four-parameter logistic regression (4PL) model.

[10] = biological target: T3, human DKK1; experiment: Luciferase reporter gene assay in 293 TOP cells with Wnt3a and human DKK1 (recovery of Wnt signaling); type: cell-based; conditions: screening at protein and cellular level
Procedure: The cellular biological activity of the DKK1 antibodies was tested using target cells 293 TOP overexpressing LRP5/6 and comprising the luciferase reporter system and recombinant Wnt3a (R&D systems, cat #5036-WN), as well as human DKK1 (Sino Biological, cat #10170-H08H) protein. The target cells 293 TOP were placed into a 96-well flat-bottomed white plate (corning, cat #3917) at 50,000 cells per well for incubation overnight. The supernatant was then discarded, and the gradiently diluted antibodies to be tested were each added for pre-incubation at 37° C. for 0.5 h. After the pre-incubation was completed, the diluted Wnt3a (R&D systems, cat #5036-WN) and human DKK1 protein, at working concentrations of 0.05 μg/mL and 0.1 μg/mL, respectively, were added into the mixture containing the cells and antibody for co-incubation at 37° C. for 6-8 h. Finally, the luciferase substrate One-Lite (Vazyme, cat #DD1203-03-AB) was added and the chemiluminescence values of the hybridoma antibodies were measured.
(§2) The cellular biological activity of the hDKK1 chimeric antibodies was tested using target cells 293 TOP overexpressing LRP5/6 and comprising the luciferase reporter system and recombinant Wnt3a (R&D systems, cat #5036-WN), as well as human DKK1 (Sino Biological, cat #10170-H08H) protein.
The target cells 293 TOP were placed into a 96-well flat-bottomed white plate (corning, cat #3917) at 50,000 cells per well for incubation overnight. […] Finally, the luciferase substrate One-Lite (Vazyme, cat #DD1203-03-AB) was added and the chemiluminescence values of the chimeric antibodies were measured (FIGS. 5A-5C).
as §2, with “DKK1” for “hDKK1 chimeric”, “protein. […] Finally, the luciferase substrate One-Lite (Vazyme, cat #DD1203-03-AB) was added and the chemiluminescence values of the humanized antibodies were measured. […]” for “protein.”

| Molecule | binding result [4] | IC50 [5] [µg/mL] | relative binding activity for human DKK1 (ELISA) [9] | in vitro activity in the screening of the chimeric antibodies of Example 4 [10] | other results |
| --- | --- | --- | --- | --- | --- |
| CC(=O)O[C@H]1C(=O)[C@@]2(C)[C@H]([C@H](OC(=O)c3ccccc3)[C@]3(O)C[C@H](OC(=O)[C@H](O)[C@@H](NC(=O)c4ccccc4)c4ccccc4)C(C)=C1C3(C)C)[C@]1(OC(C)=O)CO[C@@H]1C[C@@H]2O [paclitaxel, reference compound] |  |  |  |  | tumor growth inhibition (TGI) ([1]; day 35, paclitaxel 20 mg/kg intraperitoneal twice per week for 4 weeks): 60.48% |
| DKN-01: positive control anti-DKK1 monoclonal antibody; heavy and light chains SEQ ID NO: 108 and SEQ ID NO: 109 |  |  |  |  | disease control rate [2]: 57%; objective remission rate [2]: 14%; tumor growth inhibition (TGI) ([1]; day 35 after tumor inoculation, 5 mg/kg intraperitoneal once per week for 4 weeks): 23.27% |
| B1 | binds | 0.309 |  |  | EC50 [3]: 0.0434 µg/mL |
| B2 |  | 0.92 |  |  | EC50 [6]: 0.816 µg/mL |
| B3 | binds | 0.0992 |  |  | EC50 [7]: 0.0244 µg/mL; EC50 [6]: 0.0238 µg/mL; IC50 [8]: 0.258 µg/mL |
| B4 | binds | 0.355 |  |  | EC50 [3]: 0.0238 µg/mL |
| B5 |  |  | superior activity | best in vitro activity |  |
| B6 |  |  | superior activity | best in vitro activity |  |
| B7 |  |  | superior activity | best in vitro activity |  |
